Paper PMC5928113, “Properties of the ternary complex formed by yeast eIF4E, p20 and mRNA” (Scientific Reports, 2018)
Changes are numbered by the printed parent chain.

T1: eIF4E (untagged, co-expressed with p20);His6x-p20 6x mutant R55L;R56L;R57L;H60L;H61L;H62L (Saccharomyces cerevisiae;Saccharomyces cerevisiae) (UniProt P07260+P12962)
T1 sequence 1: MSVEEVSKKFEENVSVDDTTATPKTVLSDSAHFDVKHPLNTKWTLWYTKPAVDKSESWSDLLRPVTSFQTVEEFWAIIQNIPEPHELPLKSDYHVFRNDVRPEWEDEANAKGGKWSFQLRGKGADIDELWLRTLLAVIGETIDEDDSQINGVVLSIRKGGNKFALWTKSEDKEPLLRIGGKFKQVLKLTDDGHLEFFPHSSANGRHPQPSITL
T1 sequence 2: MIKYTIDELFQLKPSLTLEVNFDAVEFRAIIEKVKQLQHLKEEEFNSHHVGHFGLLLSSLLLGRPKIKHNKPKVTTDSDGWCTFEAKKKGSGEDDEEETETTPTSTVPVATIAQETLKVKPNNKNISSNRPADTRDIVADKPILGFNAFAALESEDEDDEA

T2: eIF4E (untagged, co-expressed with p20);His6x-p20 WT (Saccharomyces cerevisiae;Saccharomyces cerevisiae) (UniProt P07260+P12962)
T2 sequence 1: T1 sequence 1
T2 sequence 2: T1 sequence 2 with L55R, L56R, L57R, L60H, L61H, L62H

T3: His6x-eIF4E;p20 N-terminal 18aa peptide (Saccharomyces cerevisiae;Saccharomyces cerevisiae) (UniProt P07260+P12962)
T3 sequence 1: T1 sequence 1
T3 sequence 2: MIKYTIDELFQLKPSLTL

T4: eIF4E (untagged, co-expressed with p20);His6x-p20 WT (Saccharomyces cerevisiae;Saccharomyces …, UniProt P07260;P12962 1-213;1-161, |)
T4 sequence 1: T1 sequence 1
T4 sequence 2: T1 sequence 2 with L55R, L56R, L57R, L60H, L61H, L62H

T5: eIF4E (untagged, co-expressed with p20);His6x-p20 6x mutant (Saccharomyces cerevisiae;Saccharomyces …, UniProt P07260;P12962 1-213;1-161, |R55L;R56L;R57L;H60L;H61L;H62L)
T5 sequence 1: T1 sequence 1
T5 sequence 2: T1 sequence 2


Experiments:
[1] = molecular target: T1, eIF4E (untagged, co-expressed with p20);His6x-p20 6x mutant R55L;R56L;R57L;H60L;H61L;H62L (Saccharomyces cerevisiae;Saccharomyces cerevisiae); experiment: EMSA; details: 5' m7GpppG cap (Vaccinia Capping System); Buffer A: 10 mM sodium phosphate pH 7.5, 100 mM NaCl, 2.5 mM MgCl2, 1 mM DTT, 0.05% NP40; MST at 25 C (proteins for capped RNA MST RED-tris-NTA labeled in …)
[2] = molecular target: T2, eIF4E (untagged, co-expressed with p20);His6x-p20 WT (Saccharomyces cerevisiae;Saccharomyces cerevisiae); experiment: EMSA; details: 5' m7GpppG cap (Vaccinia Capping System); Buffer A: 10 mM sodium phosphate pH 7.5, 100 mM NaCl, 2.5 mM MgCl2, 1 mM DTT, 0.05% NP40; MST at 25 C (proteins for capped RNA MST RED-tris-NTA labeled in …)
[3] = molecular target: T1, eIF4E (untagged, co-expressed with p20);His6x-p20 6x mutant R55L;R56L;R57L;H60L;H61L;H62L (Saccharomyces cerevisiae;Saccharomyces cerevisiae); experiment: MST; details: 5' m7GpppG cap (Vaccinia Capping System); Buffer A: 10 mM sodium phosphate pH 7.5, 100 mM NaCl, 2.5 mM MgCl2, 1 mM DTT, 0.05% NP40; MST at 25 C (proteins for capped RNA MST RED-tris-NTA labeled in …)
[4] = molecular target: T3, His6x-eIF4E;p20 N-terminal 18aa peptide (Saccharomyces cerevisiae;Saccharomyces cerevisiae); experiment: MST; details: equimolar 18aa p20 peptide; 5' m7GpppG cap (Vaccinia Capping System); Buffer A: 10 mM sodium phosphate pH 7.5, 100 mM NaCl, 2.5 mM MgCl2, 1 mM DTT, 0.05% NP40; MST at 25 C (proteins for capped RNA MST RED-tris-NTA labeled in …)
[5] = molecular target: T2, eIF4E (untagged, co-expressed with p20);His6x-p20 WT (Saccharomyces cerevisiae;Saccharomyces cerevisiae); experiment: MST; details: 5' m7GpppG cap (Vaccinia Capping System), Buffer A: 10 mM sodium phosphate pH 7.5, 100 mM NaCl, 2.5 mM MgCl2, 1 mM DTT, 0.05% NP40, MST at 25 C (proteins for capped RNA MST RED-tris-NTA labeled in …)
[6] = molecular target: T4, eIF4E (untagged, co-expressed with …); experiment: EMSA; Buffer A: 10 mM sodium phosphate pH 7.5, 100 mM NaCl, 2.5 mM MgCl2, 1 mM DTT, 0.05% NP40; MST at 25 C (proteins for capped RNA MST RED-tris-NTA labeled in buffer B: 20 mM HEPES-KOH pH 7.5, 50 mM NaCl, 1 mM DTT); EMSA 1.5% agarose, 1x TBE, temperature not stated; details: protein: recombinant;recombinant; tags: ;N-terminal His6x; copies: 1;1; label: 3' FAM
[7] = molecular target: T4, eIF4E (untagged, co-expressed with …); experiment: MST; Buffer A: 10 mM sodium phosphate pH 7.5, 100 mM NaCl, 2.5 mM MgCl2, 1 mM DTT, 0.05% NP40; MST at 25 C (proteins for capped RNA MST RED-tris-NTA labeled in buffer B: 20 mM HEPES-KOH pH 7.5, 50 mM NaCl, 1 mM DTT); EMSA 1.5% agarose, 1x TBE, temperature not stated; details: protein: recombinant;recombinant; tags: ;N-terminal His6x; copies: 1;1; label: 3' FAM
[8] = molecular target: T5, eIF4E (untagged, co-expressed with …); experiment: as above; details: protein: recombinant;recombinant; tags: ;N-terminal His6x; copies: 1;1; label: 3' FAM

Row | Molecule | Kd [1] [nM] | Kd [2] [nM] | Kd [3] [nM] | Kd [4] [nM] | Kd [5] [nM] | Kd ([5]; control of the 6x mutant experiment) [nM] | Kd [6] [nM] | Kd [7] [nM] | Kd [8] [nM]
1 | GGGAACAAAAGCUGGUAAUCAAGAAUUACAAGAAACAAAAAUUCAAGUAAAUAACAGAUAAUAC [capped SSA1 5'UTR RNA, 64 nt] | 285 | 64.9 | 424 | 211 | 44.9 | 46.9 | – | – | –
2 | GUAUUACAAGAAACAAAAAUUCAAGUAAAUAACAGAUAAU (ssRNA) [uncapped SSA1 5'UTR RNA, 40 nt] | – | – | – | – | – | – | 8800 | 6240 | 35500
